The values that follow come from paper PMC5337984, “CTCF participates in DNA damage response via poly(ADP-ribosyl)ation”.

The target of this series is T1, CTCF ZNF1-11 (GST-zinc finger domain) (human, UniProt P49711 266-577).
T1 sequence: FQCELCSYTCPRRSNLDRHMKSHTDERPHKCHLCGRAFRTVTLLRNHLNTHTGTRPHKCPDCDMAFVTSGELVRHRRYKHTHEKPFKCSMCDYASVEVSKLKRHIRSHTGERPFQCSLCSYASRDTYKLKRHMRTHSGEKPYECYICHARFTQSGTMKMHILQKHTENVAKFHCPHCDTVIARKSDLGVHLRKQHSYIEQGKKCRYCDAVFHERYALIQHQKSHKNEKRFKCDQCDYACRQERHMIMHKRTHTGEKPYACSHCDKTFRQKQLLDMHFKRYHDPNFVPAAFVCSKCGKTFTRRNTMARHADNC
The series is described as follows: EMSA; 50 mM MgCl2; 200 ng poly(dI/dC); EMSA: 25 mM HEPES pH 8.0, 50 mM KCl, 50 mM MgCl2, 1% NP40, 10% glycerol, 200 ng poly(dI/dC), 20 min at 4 C; 1 pmol protein, 0.5 pmol DNA. To be noted: protein: recombinant; tags: GST (pGEX-4T-1; N-terminal); label: 32P; blunt (only one strand printed; described as duplex oligonucleotide). (Mobility shift assays separate free from complexed probe on a gel.)

B1: insulator DNA 45-mer (dsDNA)
DNA 1: CCCCCAGGGATGTAATTACGTCCCTCCCCCGCTAGGGGGCAGCAG
DNA 2: CTGCTGCCCCCTAGCGGGGGAGGGACGTAATTACATCCCTGGGGG
As to B1, the binding result is reported as “binds”.
